Results published in the supplement of paper PMC9112550, “Optimization of the antimicrobial peptide Bac7 by deep mutational scanning” (BMC Biology, 2022).

Test system: Escherichia coli TOP10
Assay: shrunken log2 fold change of peptide-encoding DNA abundance (4.5 h post-induction vs induction); higher = less antimicrobial activity (less host growth inhibition)
Settings: time post-induction: 4.5 h; library: site-saturation at positions 5, 18, 19, 20
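Further: peptides expressed intracellularly from a pBAD plasmid library in pooled LB shake-flask culture, induced with 0.3% L-arabinose, DNA abundance read by NGS, three biological replicates, DESeq2 with apeglm shrinkage.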

Row | Sequence | shrunken log2 fold change
1 | RRIRVRPPRLPRPRPRPYYCPRP | -0.513
2 | RRIRWRPPRLPRPRPRPLMEPRP | 0.835
3 | RRIRWRPPRLPRPRPRPPWSPRP | 0.378
4 | RRIRHRPPRLPRPRPRPCYDPRP | -0.00778
5 | RRIRYRPPRLPRPRPRPSPFPRP | 0.0737
6 | RRIRYRPPRLPRPRPRPGCQPRP | 0.0142
7 | RRIRERPPRLPRPRPRPNTKPRP | 0.0156
8 | RRIRIRPPRLPRPRPRPVSDPRP | -0.619
9 | RRIRDRPPRLPRPRPRPYKCPRP | -0.00925
10 | RRIRFRPPRLPRPRPRPTDGPRP | 0.0745
11 | RRIRVRPPRLPRPRPRPCAAPRP | 0.121
12 | RRIRQRPPRLPRPRPRPTKIPRP | -0.13
13 | RRIRARPPRLPRPRPRPLDCPRP | 0.49
14 | RRIRCRPPRLPRPRPRPYWGPRP | -0.427
15 | RRIRDRPPRLPRPRPRPYMYPRP | -0.194
16 | RRIRARPPRLPRPRPRPGMSPRP | 0.649
17 | RRIRHRPPRLPRPRPRPMYCPRP | -0.125
18 | RRIRDRPPRLPRPRPRPQKCPRP | 0.0207
19 | RRIRWRPPRLPRPRPRPGPCPRP | 0.101
20 | RRIRCRPPRLPRPRPRPYDKPRP | -0.985
21 | RRIRMRPPRLPRPRPRPISMPRP | 0.0246
22 | RRIRKRPPRLPRPRPRPSAEPRP | 0.787
23 | RRIRVRPPRLPRPRPRPVINPRP | -0.712
24 | RRIRGRPPRLPRPRPRPWYPPRP | -0.119
25 | RRIRSRPPRLPRPRPRPYWGPRP | -0.0576

Row | Sequence | shrunken log2 fold change
26 | RRIRGRPPRLPRPRPRPLVAPRP | 1.16
27 | RRIRVRPPRLPRPRPRPGSFPRP | -0.122
28 | RRIRWRPPRLPRPRPRPFCMPRP | -0.218
29 | RRIRMRPPRLPRPRPRPRFQPRP | 0.268
30 | RRIRNRPPRLPRPRPRPELDPRP | 0.0611
31 | RRIRTRPPRLPRPRPRPTRDPRP | 0.136
32 | RRIRKRPPRLPRPRPRPIALPRP | 0.0143
33 | RRIRHRPPRLPRPRPRPVCHPRP | -0.198
34 | RRIRRRPPRLPRPRPRPFMMPRP | -0.173
35 | RRIRSRPPRLPRPRPRPKHRPRP | -0.00685
36 | RRIRDRPPRLPRPRPRPYETPRP | -0.198
37 | RRIRKRPPRLPRPRPRPVGKPRP | -0.163
38 | RRIRVRPPRLPRPRPRPNFTPRP | 0.0054
39 | RRIRSRPPRLPRPRPRPPCQPRP | -0.0943
40 | RRIRDRPPRLPRPRPRPEGKPRP | -0.0117
41 | RRIRVRPPRLPRPRPRPHSMPRP | -0.333
42 | RRIRERPPRLPRPRPRPQPWPRP | -0.0127
43 | RRIRNRPPRLPRPRPRPQFYPRP | -0.475
44 | RRIRERPPRLPRPRPRPAPPPRP | 0.422
45 | RRIRLRPPRLPRPRPRPIKGPRP | -0.106
46 | RRIRNRPPRLPRPRPRPQLDPRP | 0.112
47 | RRIRQRPPRLPRPRPRPLMVPRP | -0.13
48 | RRIRGRPPRLPRPRPRPKWWPRP | 1.13
49 | RRIRFRPPRLPRPRPRPFFWPRP | 0.118
50 | RRIRHRPPRLPRPRPRPKPSPRP | 0.411

Row | Sequence | shrunken log2 fold change
51 | RRIRQRPPRLPRPRPRPKIRPRP | 0.00599
52 | RRIRMRPPRLPRPRPRPLMFPRP | 0.0219
53 | RRIRFRPPRLPRPRPRPCNMPRP | -1.46
54 | RRIRSRPPRLPRPRPRPGIVPRP | 0.119
55 | RRIRIRPPRLPRPRPRPVWCPRP | 0.148
56 | RRIRKRPPRLPRPRPRPTCDPRP | -0.00872
57 | RRIRQRPPRLPRPRPRPYCRPRP | -0.00101
58 | RRIRWRPPRLPRPRPRPQQYPRP | -0.284
59 | RRIRARPPRLPRPRPRPWRRPRP | 0.267
60 | RRIRSRPPRLPRPRPRPPDAPRP | 0.415
61 | RRIRWRPPRLPRPRPRPYFIPRP | -0.647
62 | RRIRSRPPRLPRPRPRPHNRPRP | 0.0124
63 | RRIRQRPPRLPRPRPRPEKGPRP | -0.017
64 | RRIRVRPPRLPRPRPRPSTEPRP | -0.331
65 | RRIRERPPRLPRPRPRPFNEPRP | -0.226
66 | RRIRGRPPRLPRPRPRPMLFPRP | 0.935
67 | RRIRTRPPRLPRPRPRPLMVPRP | -0.32
68 | RRIRTRPPRLPRPRPRPDINPRP | -0.151
69 | RRIRCRPPRLPRPRPRPVKAPRP | 0.0593
70 | RRIRPRPPRLPRPRPRPNQSPRP | -0.247
71 | RRIRSRPPRLPRPRPRPPSIPRP | 0.2
72 | RRIRDRPPRLPRPRPRPSIVPRP | -0.0831
73 | RRIRPRPPRLPRPRPRPLWNPRP | -0.0917
74 | RRIRYRPPRLPRPRPRPVCKPRP | -1.41
75 | RRIRRRPPRLPRPRPRPSRWPRP | 0.08

Row | Sequence | shrunken log2 fold change
76 | RRIRTRPPRLPRPRPRPEFYPRP | -0.212
77 | RRIRWRPPRLPRPRPRPVETPRP | -0.0256
78 | RRIRHRPPRLPRPRPRPRWVPRP | 0.31
79 | RRIRWRPPRLPRPRPRPMGTPRP | -0.00133
80 | RRIRSRPPRLPRPRPRPRWSPRP | 0.122
81 | RRIRVRPPRLPRPRPRPVITPRP | -0.207
82 | RRIRERPPRLPRPRPRPKCYPRP | -1.04
83 | RRIRMRPPRLPRPRPRPLMKPRP | 0.313
84 | RRIRPRPPRLPRPRPRPEEGPRP | -0.0155
85 | RRIRVRPPRLPRPRPRPHTHPRP | -0.414
86 | RRIRKRPPRLPRPRPRPYMRPRP | -0.0194
87 | RRIRCRPPRLPRPRPRPKCAPRP | 0.121
88 | RRIRWRPPRLPRPRPRPEDLPRP | -0.0249
89 | RRIRYRPPRLPRPRPRPLMCPRP | -0.632
90 | RRIRRRPPRLPRPRPRPYTIPRP | -0.566
91 | RRIRRRPPRLPRPRPRPVIKPRP | -0.121
92 | RRIRRRPPRLPRPRPRPKRDPRP | 0.5
93 | RRIRFRPPRLPRPRPRPTGAPRP | 0.257
94 | RRIRPRPPRLPRPRPRPDGWPRP | 0.354
95 | RRIRYRPPRLPRPRPRPLHEPRP | -0.343
96 | RRIRYRPPRLPRPRPRPDPYPRP | -0.222
97 | RRIRVRPPRLPRPRPRPHPRPRP | 0.555
98 | RRIRERPPRLPRPRPRPCVYPRP | -0.33
99 | RRIRTRPPRLPRPRPRPELTPRP | 0.0104
100 | RRIRDRPPRLPRPRPRPNFGPRP | 0.0243

Row | Sequence | shrunken log2 fold change
101 | RRIRMRPPRLPRPRPRPVKGPRP | 0.0743
102 | RRIRHRPPRLPRPRPRPRATPRP | 0.554
103 | RRIRCRPPRLPRPRPRPDSMPRP | -0.0886
104 | RRIRNRPPRLPRPRPRPSVKPRP | -0.195
105 | RRIRERPPRLPRPRPRPQNYPRP | -0.409
106 | RRIRYRPPRLPRPRPRPFLNPRP | -0.369
107 | RRIRKRPPRLPRPRPRPCSEPRP | 0.296
108 | RRIRDRPPRLPRPRPRPDLFPRP | 0.0296
109 | RRIRDRPPRLPRPRPRPLYKPRP | 0.00521
110 | RRIRSRPPRLPRPRPRPVMVPRP | -0.31
111 | RRIRDRPPRLPRPRPRPFCDPRP | 0.167
112 | RRIRYRPPRLPRPRPRPKTEPRP | -0.00177
113 | RRIRMRPPRLPRPRPRPQDFPRP | 0.0427
114 | RRIRRRPPRLPRPRPRPHQTPRP | 0.17
115 | RRIRVRPPRLPRPRPRPTRQPRP | 0.0865
116 | RRIRERPPRLPRPRPRPGLAPRP | 0.178
117 | RRIRGRPPRLPRPRPRPYSIPRP | 0.273
118 | RRIRTRPPRLPRPRPRPCAWPRP | -0.277
119 | RRIRFRPPRLPRPRPRPIMRPRP | 0.0101
120 | RRIRFRPPRLPRPRPRPQAKPRP | 0.128
121 | RRIRWRPPRLPRPRPRPKWDPRP | 0.185
122 | RRIRRRPPRLPRPRPRPIICPRP | 0.0738
123 | RRIRQRPPRLPRPRPRPAWCPRP | 0.0518
124 | RRIRLRPPRLPRPRPRPWEPPRP | 0.0843
125 | RRIRLRPPRLPRPRPRPLFDPRP | -0.148

Row | Sequence | shrunken log2 fold change
126 | RRIRIRPPRLPRPRPRPGICPRP | -0.0709
127 | RRIRFRPPRLPRPRPRPHQAPRP | -0.0233
128 | RRIRGRPPRLPRPRPRPYAYPRP | -0.0803
129 | RRIRCRPPRLPRPRPRPPRSPRP | 0.993
130 | RRIRIRPPRLPRPRPRPENSPRP | 0.0169
131 | RRIRIRPPRLPRPRPRPDMPPRP | -0.109
132 | RRIRGRPPRLPRPRPRPVWGPRP | 1.08
133 | RRIRLRPPRLPRPRPRPPWHPRP | 0.193
134 | RRIRLRPPRLPRPRPRPYNLPRP | -0.417
135 | RRIRGRPPRLPRPRPRPFGCPRP | -0.0567
136 | RRIRKRPPRLPRPRPRPKRKPRP | 0.89
137 | RRIRDRPPRLPRPRPRPQMNPRP | -0.315
138 | RRIRPRPPRLPRPRPRPAKHPRP | -0.023
139 | RRIRCRPPRLPRPRPRPIMDPRP | -0.5
140 | RRIRIRPPRLPRPRPRPYKMPRP | -0.889
141 | RRIRTRPPRLPRPRPRPDKKPRP | -0.0143
142 | RRIRRRPPRLPRPRPRPRNAPRP | 0.356
143 | RRIRNRPPRLPRPRPRPPAEPRP | 0.256
144 | RRIRIRPPRLPRPRPRPSDTPRP | 0.00546
145 | RRIRLRPPRLPRPRPRPYTMPRP | -0.923
146 | RRIRTRPPRLPRPRPRPFSYPRP | -0.0874
147 | RRIRVRPPRLPRPRPRPQKAPRP | -0.0576
148 | RRIRKRPPRLPRPRPRPWQPPRP | 0.0588
149 | RRIRPRPPRLPRPRPRPQDQPRP | -0.126
150 | RRIRYRPPRLPRPRPRPAENPRP | -0.317
